Publication PMC6202324, “C1GALT1 predicts poor prognosis and is a potential therapeutic target in head and neck cancer” (Oncogene, 2018)

How the values were obtained:
[1] = biological target: C1GALT1 (Core 1 β1,3-galactosyltransferase) (Homo sapiens, UniProt Q9NS00); experiment: cellular thermal shift assay (CETSA, western blot) in SAS and OEC-M1 cells; destabilization, dose-dependent; type: cell-based
[2] = biological target: EGFR (endogenous, from control HNSCC cells) (human (endogenous in SAS and OEC-M1)) (UniProt P00533); experiment: ELISA; ligand-binding assay: 100 µg lysate of OEC-M1 cells (siCtr or siC1GALT1-2, 72 h) incubated 18 h on plates coated with anti-EGFR antibody; biotin-EGF at different concentrations, 37 °C, 3 h; streptavidin-HRP, O.D. 490 nm; Kd estimated from Scatchard plot
[3] = biological target: EGFR from C1GALT1 knockdown HNSCC cells (human (endogenous in SAS and OEC-M1)) (UniProt P00533); experiment: as above
[4] = biological target: EGFR (endogenous, from control HNSCC cells) (human (endogenous in SAS and OEC-M1)) (UniProt P00533); experiment: ELISA; ligand-binding assay: 100 µg lysate of SAS cells (siCtr or siC1GALT1-2, 72 h) incubated 18 h on plates coated with anti-EGFR antibody; biotin-EGF at different concentrations, 37 °C, 3 h; streptavidin-HRP, O.D. 490 nm; Kd estimated from Scatchard plot
[5] = biological target: EGFR from C1GALT1 knockdown HNSCC cells (human (endogenous in SAS and OEC-M1)) (UniProt P00533); experiment: as above

C1GALT1 (Core 1 β1,3-galactosyltransferase), sequence (Q9NS00 whole entry): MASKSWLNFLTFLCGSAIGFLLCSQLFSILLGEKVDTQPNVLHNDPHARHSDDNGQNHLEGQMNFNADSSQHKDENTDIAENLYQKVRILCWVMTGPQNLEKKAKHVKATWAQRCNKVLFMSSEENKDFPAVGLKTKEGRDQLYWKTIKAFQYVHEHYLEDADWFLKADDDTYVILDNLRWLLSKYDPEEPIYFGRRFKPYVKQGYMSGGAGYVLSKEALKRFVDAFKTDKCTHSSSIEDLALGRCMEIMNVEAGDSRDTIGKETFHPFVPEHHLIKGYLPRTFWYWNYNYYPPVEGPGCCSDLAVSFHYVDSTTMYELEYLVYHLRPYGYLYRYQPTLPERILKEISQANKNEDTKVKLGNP

Kd [2] | Kd [3] | Kd [4] | Kd [5] | Compound | cellular thermal shift assay (CETSA, western blot) in SAS and OEC-M1 cells; dest [1]
 |  |  |  | CCC(C)n1ncn(-c2ccc(N3CCN(c4ccc(OCC5COC(Cn6cncn6)(c6ccc(Cl)cc6Cl)O5)cc4)CC3)cc2)c1=O (centres unmarked) [ITZ, itraconazole] | melting temperature of C1GALT1 was decreased when SAS and OEC-M1 cells were treated with itraconazole
26.1 nM | 58.8 nM | 32 nM | 42.3 nM | Biotin-EGF (ligand) | 
